US20220347324A1 (Bristol-Myers Squibb, published 2022)

Key:
[1] = target: T1, human PD-L1 expressed on cells (hPD-L1-positive L2987 cells, L2987 xenografts, human lung tumor tissue) (human, UniProt Q9NZQ7 19-290); experiment: cell binding to human PD-L1 positive L2987 cells; Adnectin marked (Cys-Capped)
T1 construct: whole, on cells; also called hPD-L1(+) L2987; PD-L1 positive cells L2987

[2] = target: T1, human PD-L1 expressed on cells …; experiment: radiotracer cell binding, 1 h on ice, gamma counter
Experimental: After the incubation period, cell samples were centrifuged at 200×g and the supernatant was discarded. Cell pellets were resuspended in 1 mL PBS+0.5% BSA and the wash procedure repeated for a total of 3 washes. Following the final wash, cells were again centrifuged at 200×g and the supernatant was discarded. The radioactivity of the remaining cell pellets was then measured by gamma counter.

[3] = target: T1, human PD-L1 expressed on cells …; experiment: in vivo PET in mice with bilateral xenografts, last 10 min of a 2 h scan
Experimental: (§1) A 10-minute transmission image was first acquired using a ⁵⁷Co point source for the purpose of attenuation correction of the final PET images. Following the transmission scan, radiotracer solutions were administered via the previously installed tail vein catheters and a 2 hour emission image was acquired. […] All injections were formulated in 200 μL saline prior to injection. Exact injected doses were calculated by taking direct measurements of the formulated dose and subtracting the radioactivity remaining in the syringe and the tail vein catheter.
(§2) Images were reconstructed using a maximum a posteriori (MAP) algorithm with attenuation correction using the collected transmission images and corrected for radioisotope decay. In the final images, regions of interest (ROIs) were drawn around the tumor boundary using ASIPro software (Siemens Preclinical Solutions). Time-activity curves were calculated for each ROI to yield a quantitative view of radiotracer within the tumor volume over the course of the 2 hour emission image. For final comparison, individual time-activity curves were normalized based on the injected radiotracer dose for each specific animal. Radiotracer uptake was compared across tumors using the final 10 minutes of each time-activity curve (1 hour 50 minutes-2h post-radiotracer injection).

[4] = target: T1, human PD-L1 expressed on cells …; experiment: in vivo PET in mice, co-injected with 3 mg/kg unlabeled A02 Adnectin as competitor
Experimental: as §1, §2

[5] = target: T1, human PD-L1 expressed on cells …; experiment: in vivo PET in mice with bilateral xenografts
Excerpt: Briefly, nude mice were subcutaneously implanted bilaterally with HT-29 and L2987 cells. Once tumors reached approximately 200-300 mm³, animals were selected for imaging. Mice were anesthetized with 2% isoflurane in oxygen and placed onto the imaging bed of a Focus 120 PET imaging system (Siemens Preclinical Solutions). […] A 10-minute transmission image was then collected using a ⁵⁷Co point source for use as attenuation correction. Images were reconstructed using a 3D maximum a posteriori algorithm with attenuation correction using AsiPro software (Siemens Preclinical Solutions).

B1: ADX_5322_A02 (designed binder)
chain: MGVSDVPRDLEVVAATPTSLLISWSYDGPIDRYYRITYGETGGNSPVQEFTVPPDQKTATISGLKPGVDYTITVYAVRLEEAHYNREFPISINYRTPCHHHHHH
notes: C-terminus NYRTPCH6
- EC50 [1]: 0.43 nM

B2: 64Cu-E01-NODAGA (designed binder)
chain: GVSDVPRDLEVVAATPTSLLISWRAQLSPSFYYRITYGETGGNSPVQEFTVPNDVMTATISGLKPGVDYTITVYAVTTHGVYFYSPISINYRTPC
modifications: C-terminal cysteine linked by maleimide to NODAGA chelating 64Cu
notes: E01 with C-terminal PC (ADX_5417_E01 w/ N leader and modified C-terminus); also called 64Cu-E01 anti-PD-L1 Adnectin
- fold cell associated radioactivity, hPD-L1-positive L2987 cells against hPD-L1-negative HT-29 cells [2]: 44.6 fold

B3: 64Cu-A02-NODAGA (designed binder)
chain: GVSDVPRDLEVVAATPTSLLISWSYDGPIDRYYRITYGETGGNSPVQEFTVPPDQKTATISGLKPGVDYTITVYAVRLEEAHYNREFPISINYRTPC
modifications: C-terminal cysteine linked by maleimide to NODAGA chelating 64Cu
notes: A02 with C-terminal PC; also called NODAGA-64Cu-labeled A02 anti-PD-L1 Adnectin
- radiotracer uptake, hPD-L1(+) L2987 xenografts against hPD-L1(-) HT-29 xenografts [3]: 3.05 fold
- radiotracer uptake, hPD-L1(+) L2987 xenografts against hPD-L1(-) HT-29 xenografts, with cold competitor [4]: 1.04 fold

B4: [18F]-A02-4PEG-DBCO-FPPEGA (designed binder)
chain: B3 chain
modifications: C-terminal cysteine linked to Maleamide-DBCO-FFP(18F)
notes: also called 18F-DBCO-A02 anti-PD-L1 Adnectin; ADX_5322_A02-Mal-DBCO-FFPF18
- maximum radiotracer uptake ratio, hPD-L1(+) L2987 against hPD-L1(-) HT-29 xenografts [5]: 3.53 ratio
